Assay [1] has as its system TNR-EGFL. The assay can be described thus: Phage blocking of the inhibitory effect on NG108 cell adhesion. The class given is cell-based. The settings on record: peptide displayed on phage, 24 hours. As to the method:
(§1) NG108 cells were plated on poly-DL-ornithine-treated tissue culture petri dish as single-cell suspensions. Specific phages that display the Nogo66-, MAG- and TNR-binding peptides identified above were added to the cell culture. Cells were maintained for 24 hours before fixation and staining with toluidine blue. Cell adhesion was determined as previously described.

The target in assay [2] is T1, TNR-EGFL (Homo sapiens, UniProt Q92752).
T1 construct: GST; made in house
T1 sequence (Q92752 125-329): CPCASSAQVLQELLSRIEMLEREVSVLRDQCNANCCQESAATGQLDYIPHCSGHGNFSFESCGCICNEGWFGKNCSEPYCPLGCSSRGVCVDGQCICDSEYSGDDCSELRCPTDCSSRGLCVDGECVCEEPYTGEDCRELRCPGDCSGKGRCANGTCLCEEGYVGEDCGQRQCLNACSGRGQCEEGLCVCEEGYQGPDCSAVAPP
The assay can be described thus: Phage display panning (Ph.D-7 library), clones identified by ELISA and sequencing. The settings on record: target TNR-EGFL, 3-4 rounds of affinity selection. The format is binding. How it is done:
(§2) Purification of TN-R, MAG and Nogo from adult mouse brains was performed by immumoaffinity chromatography as previously described (Pesheva, P et al, 1989). Generation and purification of the recombinant domains of TN-R, MAG, Nogo as fusion proteins with GST were performed as previously described (Xiao Z C et al, 1996). All these proteins were used as phage binding targets for rapid screening, using the Ph. D-7TM phage display peptide library kit (New England Biolabs, Ltd) according to the manufacturer's instructions.
(§3) Briefly, a library of phages, displaying different peptide sequences, was exposed to a plate coated with the target protein. Unbound phage was washed away and specifically bound phage was eluted by lowering pH. The eluted pool of phage was amplified, and the process was repeated 3-4 times.
(§4) The peptide-encoding sequences of the specific phage clones were determined by automated sequencing. The sequences of peptides which bound specifically to the targeted proteins were obtained.
(§5) Exemplary 7-mer peptide-endcoding sequences are shown below. “n” refers to the number of isolated phages displaying a peptide having the sequence shown (though there was of course some variability in the encoding nucleic acid sequences, owing to the degeneracy of the genetic code). “SIN” is an abbreviation for “SEQ ID NO.” and refers to the peptide sequence. The SEQ ID NOS of the nucleic acid sequences from the top to the bottom of the table are as follows: SEQ ID NO: 28, SEQ ID NO: 29, SEQ ID NO: 30, SEQ ID NO: 31, SEQ ID NO: 32, SEQ ID NO: 29, SEQ ID NO: 33. SEQ ID NO: 28, SEQ ID NO: 34, SEQ ID NO: 35.
(An ELISA detects its analyte on a solid surface through an enzyme-linked reagent.)

Assay [3] has as its target T2, MAG (Mus musculus, UniProt P20917).
T2 construct: from tissue; host or cells: adult mouse brain
T2 sequence (P20917 20-627): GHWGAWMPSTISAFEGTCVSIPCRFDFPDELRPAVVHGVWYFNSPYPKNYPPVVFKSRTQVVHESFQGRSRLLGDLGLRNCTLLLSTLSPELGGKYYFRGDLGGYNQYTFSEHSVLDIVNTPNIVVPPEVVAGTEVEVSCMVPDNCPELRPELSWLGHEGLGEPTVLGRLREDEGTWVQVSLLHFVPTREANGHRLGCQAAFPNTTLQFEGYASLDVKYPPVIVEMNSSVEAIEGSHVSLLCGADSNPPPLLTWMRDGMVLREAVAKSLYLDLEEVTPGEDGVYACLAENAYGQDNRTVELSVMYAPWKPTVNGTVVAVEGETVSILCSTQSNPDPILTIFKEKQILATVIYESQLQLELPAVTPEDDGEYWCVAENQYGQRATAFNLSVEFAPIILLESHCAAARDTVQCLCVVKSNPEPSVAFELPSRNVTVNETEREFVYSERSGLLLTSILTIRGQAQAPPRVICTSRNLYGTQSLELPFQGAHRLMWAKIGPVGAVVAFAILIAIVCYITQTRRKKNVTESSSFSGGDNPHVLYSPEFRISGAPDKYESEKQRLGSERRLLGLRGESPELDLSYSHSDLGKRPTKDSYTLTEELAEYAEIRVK
The assay is described as above. The format is binding. As to conditions: target MAG, 3-4 rounds of affinity selection. How it is done: as §2, §3, §4, §5

Assay [4] concerns the target T3, Nogo-66 (Homo sapiens, UniProt Q9NQC3).
T3 sequence (Q9NQC3 1055-1120): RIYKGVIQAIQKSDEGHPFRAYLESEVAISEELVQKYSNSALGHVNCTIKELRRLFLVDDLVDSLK
The assay is described as follows: Phage blocking of the inhibitory effect on NG108 cell adhesion. The settings on record: peptide displayed on phage, 24 hours. Further details: made in house. The class given is cell-based. How it is done: as §1

Assay [5] addresses T2, MAG. Described as above. The format is cell-based. As to conditions: peptide displayed on phage, 24 hours. As to the method:
as §1

The target in assay [6] is T3, Nogo-66. The assay is described as follows: Phage display panning (Ph.D-7 library), clones identified by ELISA and sequencing. As to conditions: target Nogo-66, 3-4 rounds of affinity selection. Further details: GST; made in house. The class given is binding. As to the method: as §2, §3, §4, §5
The test system of assay [7] is NG108 cells. The assay is described as follows: Neuronal cell adhesion to protein spots on nitrocellulose-coated dishes. The settings on record: spots 5 μM GST-Nogo66, 100 μM Nogo66, Nogol-50, Nogol-25; 12 hours; p<0.05. The class given is cell-based, mouse neuroblastoma—rat glioma hybrid cells. How it is done: Tissue culture petri dishes (Becton Dickinson) with a diameter of 3.5 cm were coated with methanol-solubilized nitrocellulose according to Lagenaur and Lemmon (1987) and air-dried under a sterile hood. Then the petri dishes were incubated with PBS containing 5 μg/ml poly-DL-ornithine for 2 hours at 37° C. Subsequently, the dishes were washed three times with PBS and dried under a sterile hood.
Protein spots (1.5 μl of 5 μM GST, 5 μM GST-Nogo66, 100 μM Nogo66, 100 μM Nogol-50 or 100 μM Nogol-25) were applied to the nitrocellulose-coated surfaces of the petri dishes and incubated for 2 hours at 37° C. in a humidified atmosphere. Subsequently, the spots were washed three times with PBS. The dishes were then flooded with PBS containing 2% heat-inactivated fatty acid-free BSA (Sigma) and incubated overnight to block residual non-specific protein binding sites.
Then, the dishes were washed with PBS and NG108 cells were plated in 2 ml of Dulbecco's modified Eagle's medium containing 10% fetal bovine serum at a density of 2.5×10^5 cells/ml and incubated at 37° C. in a humidified atmosphere. After 12 hours, the dishes were gently washed three times with PBS and the cells fixed by flooding with PBS containing 2.5% glutaraldehyde. After fixation, cultures were stained with 0.5% toluidine blue (Sigma) in 2.5% sodium carbonate. […]
Cells adhering to the various spots were photographed and counted. […]

In assay [8] the test system is NG108 cells. The assay is described as follows: Neurite outgrowth assay on coated Nogo domain substrates. The format is cell-based, mouse neuroblastoma—rat glioma hybrid cells. The settings on record: coated substrate, GST as control. How it is done: NG108 cells were plated on coated substrates using Nogol-25, Nogol-50, Nogol-66, and GST-Nogo-66 as well as GST as control.

In assay [9] the test system is NG108 cells. The assay can be described thus: Repulsion assay on coated Nogo domain substrates. The class given is cell-based, mouse neuroblastoma—rat glioma hybrid cells. As to conditions: GST as control. How it is done: NG108 cells (mouse neuroblastoma—rat glioma hybrid cells, commercially available from the American Tissue Type Culture Collection, Manassas, Va., USA, under accession number ATCC HB-12317) were plated on coated substrates using Nogol-25, Nogol-50, Nogol-66 and GST-Nogo-66 as well as GST as control. Generation and purification of the recombinant domains of Nogo, either alone or as fusion proteins with GST, were performed as previously described (Xiao Z C et al, 1996).

Assay [10] deals with postnatal day 1 hippocampal neurons. The settings on record: coated protein; cited from earlier work.

Turning to “TQLFPPQ (From a phage library that displays random 7-mers)”, the results for the “Block of the inhibitory effect of TNR-EGFL on NG108 cell binding” value in the assay with TNR-EGFL [1] and in the assay on TNR-EGFL [1] (listed as SEQ ID NO. 3) were “able to block” and “block”, respectively. The figures for the “n, number of isolated phages displaying the peptide” value (“n, number” for short) in the assay with TNR-EGFL [2], with TNR-EGFL [2] (listed as SEQ ID NO. 3) and with MAG [3] were “TQLFPPQ (n = 18)”, 18 and “TQLFPPQ (n = 7)”, respectively.

With “YLTQPQS (From a phage library that displays random 7-mers)”, the “Block of the inhibitory effect of Nogo-66 on NG108 cell binding” value is reported as “able to block” in the assay with Nogo-66 [4] and “block” with Nogo-66 [4] (listed as SEQ ID NO. 1). Moreover, the “Block of the inhibitory effect of MAG on NG108 cell binding” value in the assay with MAG [5] is “able to block”; with MAG [5] (listed as SEQ ID NO. 1), “block”. Moreover, the “n, number” value with MAG [3] is reported as “YLTQPQS (n = 19)”; with MAG [3] (listed as SEQ ID NO. 1), 19; with Nogo-66 [6] it was “YLTQPQS (n = 43)”; in the assay with Nogo-66 [6] (listed as SEQ ID NO. 1), 43.

Consider “HSIPDNI (From a phage library that displays random 7-mers)”, for which the figures for the “n, number” value with TNR-EGFL [2] and in the assay with TNR-EGFL [2] (listed as SEQ ID NO. 4) were “HSIPDNI (n = 3)” and 3, respectively.

For “QLPLMPR (From a phage library that displays random 7-mers)”, the “n, number” value with MAG [3] is given as “QLPLMPR (n = 5)”; with MAG [3] (listed as SEQ ID NO. 7) it was 5.

Consider “HHMPHDK (From a phage library that displays random 7-mers)”, for which the “n, number” value is recorded as “HHMPHDK (n = 1)” with TNR-EGFL [2] and 1 with TNR-EGFL [2] (listed as SEQ ID NO. 5).

In the case of “GSLPHSL (From a phage library that displays random 7-mers)”, the “n, number” value with TNR-EGFL [2] was “GSLPHSL (n = 1)”; with Nogo-66 [6] it was “GSLPHSL (n = 8)”; with Nogo-66 [6] (listed as SEQ ID NO. 2), 8.

Regarding “YTTPPSP (From a phage library that displays random 7-mers)”, the entries for the “n, number” value with TNR-EGFL [2] and with TNR-EGFL [2] (listed as SEQ ID NO. 6) were “YTTPPSP (n = 1)” and 1, respectively.

B1: Nogol-66: recombinant domain of Nogo (66-residue extracellular domain) used as coated substrate (protein)
chain: T3 sequence (Q9NQC3 1055-1120)
modifications: not fully specified
notes: recombinant domain of Nogo (66-residue extracellular domain) used as coated substrate
For B1, the “NG108 cell counts adhering to protein spot compared to GST” value with NG108 cells [7] is listed as “significantly reduced”. Further, in the assay on NG108 cells [8], the “Neurite outgrowth of NG108 cells inhibited” value is reported as “inhibited significantly”. Moreover, in the assay on NG108 cells [9], the “NG108 cells repelled from coated substrate” value is listed as “repelled significantly”.

B2: GST-Nogo-66: recombinant Nogo-66 domain as fusion protein with GST (protein)
chain: T3 sequence (Q9NQC3 1055-1120)
modifications: also: fused to GST
notes: recombinant Nogo-66 domain as fusion protein with GST
Consider B2, for which the “NG108 cell counts adhering to protein spot compared to GST” value in the assay with NG108 cells [7] is reported as “significantly reduced”. In the assay on NG108 cells [8], the “Neurite outgrowth of NG108 cells inhibited” value is listed as “inhibited significantly”. Also, in the assay on NG108 cells [9], the “NG108 cells repelled from coated substrate” value is “repelled significantly”.

B3: rMAG: coated recombinant MAG (protein, UniProt P20916 20-626, looked up)
Myelin-associated glycoprotein: GHWGAWMPSSISAFEGTCVSIPCRFDFPDELRPAVVHGVWYFNSPYPKNYPPVVFKSRTQVVHESFQGRSRLLGDLGLRNCTLLLSNVSPELGGKYYFRGDLGGYNQYTFSEHSVLDIVNTPNIVVPPEVVAGTEVEVSCMVPDNCPELRPELSWLGHEGLGEPAVLGRLREDEGTWVQVSLLHFVPTREANGHRLGCQASFPNTTLQFEGYASMDVKYPPVIVEMNSSVEAIEGSHVSLLCGADSNPPPLLTWMRDGTVLREAVAESLLLELEEVTPAEDGVYACLAENAYGQDNRTVGLSVMYAPWKPTVNGTMVAVEGETVSILCSTQSNPDPILTIFKEKQILSTVIYESELQLELPAVSPEDDGEYWCVAENQYGQRATAFNLSVEFAPVLLLESHCAAARDTVQCLCVVKSNPEPSVAFELPSRNVTVNESEREFVYSERSGLVLTSILTLRGQAQAPPRVICTARNLYGAKSLELPFQGAHRLMWAKIGPVGAVVAFAILIAIVCYITQTRRKKNVTESPSFSAGDNPPVLFSSDFRISGAPEKYESERRLGSERRLLGLRGEPPELDLSYSHSDLGKRPTKDSYTLTEELAEYAEIRVK
For B3, the “Axonal growth cones collapsed” value in assay [10] is 60%.

B4: denatured rMAG: denatured recombinant MAG (protein, UniProt P20916 20-626, looked up)
Myelin-associated glycoprotein: B3 Myelin-associated glycoprotein
modifications: denatured recombinant
notes: denatured recombinant MAG
Regarding B4, in assay [10], the “Axonal growth cones collapsed” value was “not observed”.

These data come from US7408028B2, “Peptides, antibodies thereto, and their use in treatment of central nervous system, damage” (Sinapore General Hospital Pte Ltd., priority 2002, dated 2008).
